Reference: patent US20230056252A1 (Gilead, published 2023)

Experiments:
[1] = target: CD3 on rhesus monkey T cells in PBMCs (rhesus monkey); assay: flow cytometry on PBMCs, % anti-huIgG+ CD8+ cells, donor rh 3483
[2] = target: CD3 on rhesus monkey T cells in PBMCs (rhesus monkey); assay: flow cytometry on PBMCs, % anti-huIgG+ CD4+ cells, donor rh 3483
[3] = target: CD3 on rhesus monkey T cells in PBMCs (rhesus monkey); assay: flow cytometry on PBMCs, % anti-huIgG+ CD4+ cells, donor rh 3563
[4] = target: T1, CD3 expressed on cell-surface of primary human T cells (human, UniProt P07766 23-207; P04234 22-171); assay: flow cytometry on PBMCs, % anti-huIgG+ CD4+ cells, donor hu 340
T1 construct: also called cell-surface CD3; human CD3
Description: (§1) Briefly, PBMCs from healthy human donors and healthy rhesus or cynomolgus monkey donors were incubated with different concentrations of HIV×CD3 bispecific molecules for 1 hour at RT. […] Cells were then washed, fixed/permeabilized, and analyzed on BD LSRFortessa. The percentage of α-huIgG-APC-positive CD4+ and CD8+ T cells and the mFI of the α-huIgG-APC of CD4+ and CD8+ cells were collected, and data analyzed using GraphPad Prism.

[5] = target: T1, CD3 expressed on cell-surface of …; assay: flow cytometry on PBMCs, % anti-huIgG+ CD8+ cells, donor hu 340
Description: as §1

[6] = target: CD3 on rhesus monkey T cells in PBMCs (rhesus monkey); assay: flow cytometry on PBMCs, % anti-huIgG+ CD8+ cells, donor rh 3563
[7] = target: T1, CD3 expressed on cell-surface of …; assay: flow cytometry on PBMCs, % anti-huIgG+ CD8+ cells, donor hu 151
Description: as §1

[8] = target: T1, CD3 expressed on cell-surface of …; assay: flow cytometry on PBMCs, % anti-huIgG+ CD4+ cells, donor hu 151
[9] = target: T2, MabSelect SuRe (engineered Protein A); assay: 500 ml Expi293 expression, MabSelect SuRe capture and cation exchange; purified homodimer yield relative to parent
T2 construct: also called MabSelect SuRe column
Description: 500 ml of Expi293 cells were transfected with 0.5 mg DNA encoding selected huSP34 scFv-Fc Protein A knockout variants according to manufacturer's protocol. Four days post transfection, the cell-free clarified supernatant was collected and loaded to a MabSelect™ SuRe™ (Cytiva Life Sciences) column. Afterwards the column was washed with a low salt buffer of 25 mM Tris HCl pH 7.5, 25 mM NaCl for 10 column volumes (CV), then high salt wash of 25 mM Tris HCl pH 7.5, 500 mM NaCl for 5CV to remove non-specific binding, and finally washed with a low salt wash of 25 mM Tris HCl pH 7.5, 25 mM NaCl for 10CV. To elute the antibody, an isocratic elution step of 100 mM sodium acetate pH 3.7 was performed. The eluted pool was neutralized to pH 6.0 with 1 M Tris HCl pH 9.0, and subjected to a cation ion purification, HiTrap SP HP (Cytiva Life Sciences) to further remove impurities. The cation captured protein was washed with 10 mM sodium phosphate pH 7.0 for 10CV, then eluted in 0-30% gradient of 10 mM sodium phosphate pH 7.0, 1M NaCl for 50CV to separate the desired two targeting arm antibody (heterodimer) from the one targeted arm antibody (homodimer). Followed with gradient elution from 30-100% of 10 mM sodium phosphate pH 7.0, 1 M NaCl for 10CV to remove aggregation or homodimer in higher isoelectric point (pI). All proteins were formulated into 20 mM histidine pH 5.8 by dialysis, added additive of sucrose/tween-80, sterile filtered, and stored at 4° C. Concentration of the formulated protein was measured by A280. Purity was assessed as percent monodispersed by analytical size-exclusion chromatography. Identity of the bispecific antibody was determined by Mass Spec (MS).

T1 sequence (P07766 23-207 limits assumed, chain 1 of 2): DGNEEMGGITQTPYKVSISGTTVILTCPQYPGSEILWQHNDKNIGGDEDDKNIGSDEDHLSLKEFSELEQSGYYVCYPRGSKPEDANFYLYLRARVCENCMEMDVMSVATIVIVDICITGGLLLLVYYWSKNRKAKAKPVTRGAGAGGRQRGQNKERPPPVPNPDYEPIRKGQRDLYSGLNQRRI
T1 sequence (P04234 22-171 limits assumed, chain 2 of 2): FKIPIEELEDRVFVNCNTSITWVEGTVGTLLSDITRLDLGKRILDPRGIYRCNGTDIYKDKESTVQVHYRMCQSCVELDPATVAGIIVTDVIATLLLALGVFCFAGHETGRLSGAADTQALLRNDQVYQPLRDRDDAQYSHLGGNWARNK
Chain of CD3 on rhesus monkey T cells in PBMCs (rhesus monkey) (P16003 26-458): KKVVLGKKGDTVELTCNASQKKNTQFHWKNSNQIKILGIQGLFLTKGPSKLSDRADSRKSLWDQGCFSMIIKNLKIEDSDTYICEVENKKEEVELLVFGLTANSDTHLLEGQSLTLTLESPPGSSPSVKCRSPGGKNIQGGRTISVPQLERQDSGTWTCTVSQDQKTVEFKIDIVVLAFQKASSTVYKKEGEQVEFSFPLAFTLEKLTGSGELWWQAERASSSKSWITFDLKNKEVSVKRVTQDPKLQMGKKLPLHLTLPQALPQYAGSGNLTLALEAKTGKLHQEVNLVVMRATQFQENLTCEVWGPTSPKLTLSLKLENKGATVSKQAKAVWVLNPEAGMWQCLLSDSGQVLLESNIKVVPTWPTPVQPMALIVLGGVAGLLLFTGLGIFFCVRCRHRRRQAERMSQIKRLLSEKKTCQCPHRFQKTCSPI

Row | Binder | EC50 [1] [µg/mL] | EC50 [2] [µg/mL] | EC50 [3] [µg/mL] | EC50 [4] [µg/mL] | EC50 [5] [µg/mL] | EC50 [6] [µg/mL] | EC50 [7] [µg/mL] | EC50 [8] [µg/mL] | scFv-Fc Homodimer Yield Relative to WT (e.g. Protein A binding) [9] [%]
1 | hPGT121.66 AAS + W/huSP34.34.10 scFv AAS + SAV + R (bispecific antibody, human IgG1, lambda, L234A L235A) EVQLVESGGGLVQPGGSLRLSCAASGFTFNTYAMNWVRQAPGKGLEWVGRIRSKYNNYATYYAASVKGRFTISRDDSKNSLYLQMNSLKTEDTAMYYCVRHGNFGHSYVSWFAYWGQGTLVTVSSGGGGSGGGGSGGGGSGGGGSQAVVTQPPSLTVSPGGTVTLTCGSSTGAVTTGHYANWVQQKPGQAPRGLIGGTNKRAPGVPARFSGSLSGGKAALTISGAQPEDEAEYYCALWYSNRWVFGGGTKLTVLEPKSSDKTHTCPPCPAPEAAGGPSVFLFPPKPKDTLMISRTPEVTCVVVDVSHEDPEVKFNWYVDGVEVHNAKTKPREEQYNSTYRVVSVLTVLHQDWLNGKEYKCKVSNKALPASIEKTISKAKGQPREPQVYTLPPSREEMTKNQVSLSCAVKGFYPSDIAVEWESNGQPENNYKTTPPVLDSDGSFFLVSKLTVDKSRWQQGNVFSCSVMHEALHNRYTQKSLSLSPGK heavy: QMQLQESGPGLVKPSETLSLTCSVSGASISDSYWSWIRRSPGKGLEWIGYVHKSGDTNYNPSLKSRVHLSLDTSKNQVSLSLTGVTAADSGKYYCARTLHGRRIYGIVAFNEWFTYFYMDVWGTGTQVTVSSASTKGPSVFPLAPSSKSTSGGTAALGCLVKDYFPEPVTVSWNSGALTSGVHTFPAVLQSSGLYSLSSVVTVPSSSLGTQTYICNVNHKPSNTKVDKKVEPKSCDKTHTCPPCPAPEAAGGPSVFLFPPKPKDTLMISRTPEVTCVVVDVSHEDPEVKFNWYVDGVEVHNAKTKPREEQYNSTYRVVSVLTVLHQDWLNGKEYKCKVSNKALPASIEKTISKAKGQPREPQVYTLPPSREEMTKNQVSLWCLVKGFYPSDIAVEWESNGQPENNYKTTPPVLDSDGSFFLYSKLTVDKSRWQQGNVFSCSVMHEALHNHYTQKSLSLSPGK light: not shown | 0.1 | 0.03 | 0.05 | 0.06 | 0.08 | 0.16 | 0.07 | 0.06 | 
2 | huSP34.14.8 scFv AAS + SAV + R (Fc fusion, also called R19S) EVQLVESGGGLVQPGGSLSLSCAASGFTFSTYAMNWVRQAPGKGLEWVGRIRSKYNNYATYYAASVKGRFTISRDDSKNTLYLQMNSLRTEDTAVYYCVRHGNFGHSYVSWFAYWGQGTLVTVSSGGGGSGGGGSGGGGSGGGGSQAVVTQEPSLTVSPGGTVTLTCGSSTGAVTTGHYANWVQQKPGQAPRGLIGGTNKRAPGVPARFSGSLLGGKAALTISGAQPEDEAEYYCALWYSNRWVFGGGTKLTVLEPKSSDKTHTCPPCPAPEAAGGPSVFLFPPKPKDTLMISRTPEVTCVVVDVSHEDPEVKFNWYVDGVEVHNAKTKPREEQYNSTYRVVSVLTVLHQDWLNGKEYKCKVSNKALPASIEKTISKAKGQPREPQVYTLPPSREEMTKNQVSLSCAVKGFYPSDIAVEWESNGQPENNYKTTPPVLDSDGSFFLVSKLTVDKSRWQQGNVFSCSVMHEALHNRYTQKSLSLSPGK |  |  |  |  |  |  |  |  | 21
3 | huSP34.25.8 scFv AAS + SAV + R (Fc fusion, also called T57A, G65S; T57A + G65S) EVQLVESGGGLVQPGGSLRLSCAASGFTFSTYAMNWVRQAPGKGLEWVGRIRSKYNNYAAYYAASVKSRFTISRDDSKNTLYLQMNSLRTEDTAVYYCVRHGNFGHSYVSWFAYWGQGTLVTVSSGGGGSGGGGSGGGGSGGGGSQAVVTQEPSLTVSPGGTVTLTCGSSTGAVTTGHYANWVQQKPGQAPRGLIGGTNKRAPGVPARFSGSLLGGKAALTISGAQPEDEAEYYCALWYSNRWVFGGGTKLTVLEPKSSDKTHTCPPCPAPEAAGGPSVFLFPPKPKDTLMISRTPEVTCVVVDVSHEDPEVKFNWYVDGVEVHNAKTKPREEQYNSTYRVVSVLTVLHQDWLNGKEYKCKVSNKALPASIEKTISKAKGQPREPQVYTLPPSREEMTKNQVSLSCAVKGFYPSDIAVEWESNGQPENNYKTTPPVLDSDGSFFLVSKLTVDKSRWQQGNVFSCSVMHEALHNRYTQKSLSLSPGK |  |  |  |  |  |  |  |  | 1
4 | huSP34.26.8 scFv AAS + SAV + R (Fc fusion, also called R19S, T57A; R19S + T57A) EVQLVESGGGLVQPGGSLSLSCAASGFTFSTYAMNWVRQAPGKGLEWVGRIRSKYNNYAAYYAASVKGRFTISRDDSKNTLYLQMNSLRTEDTAVYYCVRHGNFGHSYVSWFAYWGQGTLVTVSSGGGGSGGGGSGGGGSGGGGSQAVVTQEPSLTVSPGGTVTLTCGSSTGAVTTGHYANWVQQKPGQAPRGLIGGTNKRAPGVPARFSGSLLGGKAALTISGAQPEDEAEYYCALWYSNRWVFGGGTKLTVLEPKSSDKTHTCPPCPAPEAAGGPSVFLFPPKPKDTLMISRTPEVTCVVVDVSHEDPEVKFNWYVDGVEVHNAKTKPREEQYNSTYRVVSVLTVLHQDWLNGKEYKCKVSNKALPASIEKTISKAKGQPREPQVYTLPPSREEMTKNQVSLSCAVKGFYPSDIAVEWESNGQPENNYKTTPPVLDSDGSFFLVSKLTVDKSRWQQGNVFSCSVMHEALHNRYTQKSLSLSPGK |  |  |  |  |  |  |  |  | 8
5 | huSP34.19.8 scFv AAS + SAV + R (Fc fusion, also called Q81E) EVQLVESGGGLVQPGGSLRLSCAASGFTFSTYAMNWVRQAPGKGLEWVGRIRSKYNNYATYYAASVKGRFTISRDDSKNTLYLEMNSLRTEDTAVYYCVRHGNFGHSYVSWFAYWGQGTLVTVSSGGGGSGGGGSGGGGSGGGGSQAVVTQEPSLTVSPGGTVTLTCGSSTGAVTTGHYANWVQQKPGQAPRGLIGGTNKRAPGVPARFSGSLLGGKAALTISGAQPEDEAEYYCALWYSNRWVFGGGTKLTVLEPKSSDKTHTCPPCPAPEAAGGPSVFLFPPKPKDTLMISRTPEVTCVVVDVSHEDPEVKFNWYVDGVEVHNAKTKPREEQYNSTYRVVSVLTVLHQDWLNGKEYKCKVSNKALPASIEKTISKAKGQPREPQVYTLPPSREEMTKNQVSLSCAVKGFYPSDIAVEWESNGQPENNYKTTPPVLDSDGSFFLVSKLTVDKSRWQQGNVFSCSVMHEALHNRYTQKSLSLSPGK |  |  |  |  |  |  |  |  | 86
6 | hPGT121.66 AAS + W/huSP34.34.11 scFv AAS + SAV + R (bispecific antibody, human IgG1, lambda, L234A L235A) EVQLVESGGGLVQPGGSLRLSCAASGFTFNTYAMNWVRQAPGKGLEWVGRIRSKYNNYATYYAASVKGRFTISRDDSKNSLYLQMNSLKTEDTAMYYCVRHGNFGHSYVSWFAYWGQGTLVTVSSGGGGSGGGGSGGGGSGGGGSQAVVTQEPSLTVSPGGTVTLTCGSSTGAVTTGHYANWVQQKPGQAPRGLIGGTNKRAPGVPARFSGSLLGGKAALTLSGAQPEDEAEYYCALWYSNLWVFGGGTKLTVLEPKSSDKTHTCPPCPAPEAAGGPSVFLFPPKPKDTLMISRTPEVTCVVVDVSHEDPEVKFNWYVDGVEVHNAKTKPREEQYNSTYRVVSVLTVLHQDWLNGKEYKCKVSNKALPASIEKTISKAKGQPREPQVYTLPPSREEMTKNQVSLSCAVKGFYPSDIAVEWESNGQPENNYKTTPPVLDSDGSFFLVSKLTVDKSRWQQGNVFSCSVMHEALHNRYTQKSLSLSPGK heavy: QMQLQESGPGLVKPSETLSLTCSVSGASISDSYWSWIRRSPGKGLEWIGYVHKSGDTNYNPSLKSRVHLSLDTSKNQVSLSLTGVTAADSGKYYCARTLHGRRIYGIVAFNEWFTYFYMDVWGTGTQVTVSSASTKGPSVFPLAPSSKSTSGGTAALGCLVKDYFPEPVTVSWNSGALTSGVHTFPAVLQSSGLYSLSSVVTVPSSSLGTQTYICNVNHKPSNTKVDKKVEPKSCDKTHTCPPCPAPEAAGGPSVFLFPPKPKDTLMISRTPEVTCVVVDVSHEDPEVKFNWYVDGVEVHNAKTKPREEQYNSTYRVVSVLTVLHQDWLNGKEYKCKVSNKALPASIEKTISKAKGQPREPQVYTLPPSREEMTKNQVSLWCLVKGFYPSDIAVEWESNGQPENNYKTTPPVLDSDGSFFLYSKLTVDKSRWQQGNVFSCSVMHEALHNHYTQKSLSLSPGK light: not shown | 0.11 | 0.06 | 0.07 | 0.09 | 0.13 | 0.22 | 0.1 | 0.08 | 
7 | hPGT121.66 AAS + W/huSP34.34.12scFv AAS + SAV + R (bispecific antibody, human IgG1, lambda, L234A L235A) EVQLVESGGGLVQPGGSLRLSCAASGFTFNTYAMNWVRQAPGKGLEWVGRIRSKYNNYATYYAASVKGRFTISRDDSKNSLYLQMNSLKTEDTAMYYCVRHGNFGHSYVSWFAYWGQGTLVTVSSGGGGSGGGGSGGGGSGGGGSQAVVTQPPSLTVSPGGTVTLTCGSSTGAVTTGHYANWVQQKPGQAPRGLIGGTNKRAPWTPARFSGSLSGGKAALTISGAQPEDEAEYYCALWYSNRWVFGGGTKLTVLEPKSSDKTHTCPPCPAPEAAGGPSVFLFPPKPKDTLMISRTPEVTCVVVDVSHEDPEVKFNWYVDGVEVHNAKTKPREEQYNSTYRVVSVLTVLHQDWLNGKEYKCKVSNKALPASIEKTISKAKGQPREPQVYTLPPSREEMTKNQVSLSCAVKGFYPSDIAVEWESNGQPENNYKTTPPVLDSDGSFFLVSKLTVDKSRWQQGNVFSCSVMHEALHNRYTQKSLSLSPGK heavy: QMQLQESGPGLVKPSETLSLTCSVSGASISDSYWSWIRRSPGKGLEWIGYVHKSGDTNYNPSLKSRVHLSLDTSKNQVSLSLTGVTAADSGKYYCARTLHGRRIYGIVAFNEWFTYFYMDVWGTGTQVTVSSASTKGPSVFPLAPSSKSTSGGTAALGCLVKDYFPEPVTVSWNSGALTSGVHTFPAVLQSSGLYSLSSVVTVPSSSLGTQTYICNVNHKPSNTKVDKKVEPKSCDKTHTCPPCPAPEAAGGPSVFLFPPKPKDTLMISRTPEVTCVVVDVSHEDPEVKFNWYVDGVEVHNAKTKPREEQYNSTYRVVSVLTVLHQDWLNGKEYKCKVSNKALPASIEKTISKAKGQPREPQVYTLPPSREEMTKNQVSLWCLVKGFYPSDIAVEWESNGQPENNYKTTPPVLDSDGSFFLYSKLTVDKSRWQQGNVFSCSVMHEALHNHYTQKSLSLSPGK light: not shown | 0.93 | 0.46 | 0.68 | 0.57 | 0.88 | 1.24 | 0.85 | 0.51 | 
